Paper PMC3792970, “A Single Nucleotide Polymorphism Associated with Hepatitis C Virus Infections Located in the Distal Region of the IL28B Promoter Influences NF-κB-Mediated Gene Transcription”
Residue numbers refer to the chain shown, from its start.

B1: G-T (NF813G-T) (dsDNA)
DNA 1: CCCCTGCCCTCAGTGGGCAGCCTCTGCATTCCCTCAGCTCCCTTTCTCTCTGTGA
DNA 2: TCACAGAGAGAAAGGGAGCTGAGGGAATGCAGAGGCTGCCCACTGAGGGCAGGGG
B2: C-C (NFC-C849) (dsDNA)
DNA 1: B1 DNA 1 with G26C, T30C
DNA 2: B1 DNA 2 with A26G, C30G

Key:
NF-kB p50 [1] = target: T1, NF-kB p50 (UniProt P19838 42-367); assay: EMSA; 2 ug p50; diffuse shift; EMSA: 1X BB stated as 50 mM Tris pH 8.0, 250 mM KCl, 2.5 mM EDTA, 0.5% Triton X-100, 62.5% glycerol, 1 mM DTT; 1 ug poly(dI:dC), 10 ul, room temperature 30 min, 4% native PAGE at 4 C; pull-down: 1X BB, poly(dI:dC), RT 2 h; settings: protein: recombinant; chain copies: 2; label: 5'-32P on forward strand (EMSA); biotin (pull-down); blunt
T1 sequence (P19838 42-367): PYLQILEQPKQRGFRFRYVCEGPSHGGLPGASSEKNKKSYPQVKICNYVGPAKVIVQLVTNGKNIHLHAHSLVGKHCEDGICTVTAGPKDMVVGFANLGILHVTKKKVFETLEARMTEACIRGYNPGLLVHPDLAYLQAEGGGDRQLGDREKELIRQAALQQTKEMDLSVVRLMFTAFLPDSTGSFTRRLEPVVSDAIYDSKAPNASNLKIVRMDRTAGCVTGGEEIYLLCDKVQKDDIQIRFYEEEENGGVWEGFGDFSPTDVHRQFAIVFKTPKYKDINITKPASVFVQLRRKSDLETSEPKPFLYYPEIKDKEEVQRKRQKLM

NF-kB p50 [2] = target: T1, NF-kB p50; assay: EMSA; 2 ug p50; distinct bands; EMSA: 1X BB stated as 50 mM Tris pH 8.0, 250 mM KCl, 2.5 mM EDTA, 0.5% Triton X-100, 62.5% glycerol, 1 mM DTT; 1 ug poly(dI:dC), 10 ul, room temperature 30 min, 4% native PAGE at 4 C; pull-down: 1X BB, poly(dI:dC), RT 2 h; settings: protein: recombinant; chain copies: 2; label: 5'-32P on forward strand (EMSA); biotin (pull-down); blunt

Binder | binding result (NF-kB p50 [1]) | binding result (NF-kB p50 [2])
B1 | binds | 
B2 |  | binds
